Measured values: patent publication US20020110800A1, “Use of SHP-1 and SHP-2 to detect compounds involved in neuronal survival” (McGill University, priority 1997, published 2002)

Experiments:
Experiment in all cases: cell-based or functional assay
[1] = target: TrkA Y490/785F (UniProt P04629)
[2] = target: wild-type TrkA, baculovirus-expressed, activated (autophosphorylated) (UniProt P04629)
[3] = target: TrkA Y490F (UniProt P04629)
[4] = target: TrkA Y785F (UniProt P04629)

- Trk tyrosine dephosphorylation on co-expression in insect cells (anti-pTyr blot) [1]: 2 fold
- Trk tyrosine dephosphorylation on co-expression in insect cells (anti-pTyr blot) [2]: 2 fold
- dephosphorylation of Trk at Y674/Y675 (phospho-specific anti-Trk antibodies, co-expression in insect cells) [2]: 2 fold
- Trk tyrosine dephosphorylation on co-expression in insect cells (anti-pTyr blot) [3]: 2 fold
- Trk tyrosine dephosphorylation on co-expression in insect cells (anti-pTyr blot) [4]: 2 fold
B1: SHP-2 (enzyme, UniProt Q06124 2-593, looked up, species assumed)
Tyrosine-protein phosphatase non-receptor type 11: TSRRWFHPNITGVEAENLLLTRGVDGSFLARPSKSNPGDFTLSVRRNGAVTHIKIQNTGDYYDLYGGEKFATLAELVQYYMEHHGQLKEKNGDVIELKYPLNCADPTSERWFHGHLSGKEAEKLLTEKGKHGSFLVRESQSHPGDFVLSVRTGDDKGESNDGKSKVTHVMIRCQELKYDVGGGERFDSLTDLVEHYKKNPMVETLGTVLQLKQPLNTTRINAAEIESRVRELSKLAETTDKVKQGFWEEFETLQQQECKLLYSRKEGQRQENKNKNRYKNILPFDHTRVVLHDGDPNEPVSDYINANIIMPEFETKCNNSKPKKSYIATQGCLQNTVNDFWRMVFQENSRVIVMTTKEVERGKSKCVKYWPDEYALKEYGVMRVRNVKESAAHDYTLRELKLSKVGQGNTERTVWQYHFRTWPDHGVPSDPGGVLDFLEEVHHKQESIMDAGPVVVHCSAGIGRTGTFIVIDILIDIIREKGVDCDIDVPKTIQMVRSQRSGMVQTEAQYRFIYMAVQHYIETLQRRIEEEQKSKRKGHEYTNIKYSLADQTSGDQSPLPPCTPTPPCAEMREDSARVYENVGLMQQQKSFR
